Paper PMC8567202, “Phosphoinositide-binding activity of Smad2 is essential for its function in TGF-β signaling” (The Journal of Biological Chemistry, 2021)
Substitutions are numbered along the chain they refer to. Numbers in names are those of the source.

B1: EGFP-Smad2 WT: mouse EGFP-Smad2 wild type transfected into HeLa cells (protein, UniProt Q62432 2-467, looked up)
Mothers against …: SSILPFTPPVVKRLLGWKKSAGGSGGAGGGEQNGQEEKWCEKAVKSLVKKLKKTGRLDELEKAITTQNCNTKCVTIPSTCSEIWGLSTANTVDQWDTTGLYSFSEQTRSLDGRLQVSHRKGLPHVIYCRLWRWPDLHSHHELKAIENCEYAFNLKKDEVCVNPYHYQRVETPVLPPVLVPRHTEILTELPPLDDYTHSIPENTNFPAGIEPQSNYIPETPPPGYISEDGETSDQQLNQSMDTGSPAELSPTTLSPVNHSLDLQPVTYSEPAFWCSIAYYELNQRVGETFHASQPSLTVDGFTDPSNSERFCLGLLSNVNRNATVEMTRRHIGRGVRLYYIGGEVFAECLSDSAIFVQSPNCNQRYGWHPATVCKIPPGCNLKIFNNQEFAALLAQSVNQGFEAVYQLTRMCTIRMSFVKGWGAEYRRQTVTSTPCWIELHLNGPLQWLDKVLTQMGSPSVRCSSMS
modifications: EGFP fusion
notes: mouse EGFP-Smad2 wild type transfected into HeLa cells
B2: Smad2-W422A: W422A mutant of full-length Smad2; specific PI(4,5)P2 binding-compromised (protein)
chain: MSSILPFTPPVVKRLLGWKKSAGGSGGAGGGEQNGQEEKWCEKAVKSLVKKLKKTGRLDELEKAITTQNCNTKCVTIPSTCSEIWGLSTANTVDQWDTTGLYSFSEQTRSLDGRLQVSHRKGLPHVIYCRLWRWPDLHSHHELKAIENCEYAFNLKKDEVCVNPYHYQRVETPVLPPVLVPRHTEILTELPPLDDYTHSIPENTNFPAGIEPQSNYIPETPPPGYISEDGETSDQQLNQSMDTGSPAELSPTTLSPVNHSLDLQPVTYSEPAFWCSIAYYELNQRVGETFHASQPSLTVDGFTDPSNSERFCLGLLSNVNRNATVEMTRRHIGRGVRLYYIGGEVFAECLSDSAIFVQSPNCNQRYGWHPATVCKIPPGCNLKIFNNQEFAALLAQSVNQGFEAVYQLTRMCTIRMSFVKGAGAEYRRQTVTSTPCWIELHLNGPLQWLDKVLTQMGSPSVRCSSMS
modifications: left off: His6, N-terminal, state not stated
B3: Smad2-E425K: charge-reversal mutant of full-length Smad2; PI(4,5)P2 and TβRI binding-enhanced (protein)
chain: B2 chain with A422W, E425K
modifications: left off: His6, N-terminal, state not stated
B4: Smad2-Y426A: Y426A mutant of full-length Smad2; specific PI(4,5)P2 binding-compromised (protein)
chain: B2 chain with A422W, Y426A
modifications: left off: His6, N-terminal, state not stated
B5: Smad2 WT: bacterially expressed full-length Smad2 wild-type (protein)
chain: B2 chain with A422W
modifications: left off: His6, N-terminal, state not stated
notes: bacterially expressed full-length Smad2 wild-type
B6: Smad2- R427A/R428A: double mutant of full-length Smad2; PI(4,5)P2 and TβRI binding-compromised (protein)
chain: B2 chain with A422W, R427A, R428A
modifications: left off: His6, N-terminal, state not stated
B7: Smad2-K420A: K420A mutant of full-length Smad2; predominantly TβRI binding-compromised (protein)
chain: B2 chain with K420A, A422W
modifications: left off: His6, N-terminal, state not stated

System: HeLa cells
Assay: Smad2 phosphorylation (pS465/pS467), Western blot
Format: cell-based
Settings: for Smad2 phosphorylation after TGF-β stimulation: Smad2-depleted HeLa cells, 10 ng/ml TGF-β, 48 h
Procedure: Two separate gels were used to accommodate all mutants. An empty vector transfection (vehicle) was used for a negative control for each gel. Glyceraldehyde 3-phosphate dehydrogenase (GAPDH) was used as a gel loading control. Data in A and B are quantified in Fig. S3A. C, TGF-β stimulated (10 ng/ml for 1 h) nuclear translocation of mouse EGFP-WT, -K420A, -W422A, -E425K, -Y426A, and -R427A/R428A transfected into HeLa cells whose endogenous Smad2 was suppressed by siRNA. For Smad2-WT, the effect of PI(4,5)P2 depletion was measured. Arrows indicate nuclear accumulation of EGFP-WT and EGFP-E425K. Scale bars indicate 10 μm. D, quantification of (C). (Inuc/Icyto) was calculated from total nuclear and cytosolic fluorescence intensity values. Blank and black bars indicate values before and after TGF-β stimulation. Error bars indicate S.D. values from >3 measurements (n = 10). E, Smad2 transcriptional activity measured by the luciferase assay. Blank and black bars indicate values before and after TGF-β stimulation. Error bars indicate S.D. values from >3 measurements (n = 10).
HeLa cells were plated on 6-well or 48-well plates at the density of ∼1.5 × 10^5 or 1.25 × 10^4 for 24 h and 30 nM human Smad2 (or SARA) DsiRNAs (IDT: see sequences below) were transfected into cells using the jetPRIME system (Polyplus transfection) according to the manufacturer's protocols. After transfection with siRNA for 24 h, the medium was exchanged with a fresh one and cells were transfected again with 1 μg/ml of the mouse Smad2 expression vector. In total, 24 to 48 h after transfection, cells were used for further treatment or Western blot analysis. The sequences of DsiRNAs are as follows: SMAD2-siRNA1 (sense: 5′-[…]-3′; antisense: 5′-[…]-3′); SMAD2-siRNA2 (sense: 5′-[…]-3′; antisense: 5′-[…]-3′); SMAD2-siRNA3 (sense: 5′-[…]-3′; antisense: 5′-[…]-3′); SARA-siRNA1 (sense: 5′-[…]-3′; antisense: 5′-[…]-3′); SARA-siRNA2 (sense: 5′-[…]-3′; antisense: 5′-[…]-3′).
Transfected cells or treated cells were lysed in the cell lysis buffer (20 mM Tris-HCl, pH 7.5, containing 150 mM NaCl, 1 mM Na2EDTA, 1 mM EGTA, 1% Triton-X, protease inhibitors, and phosphatase inhibitors) (1 mM Na3VO4, 1 mM NaF, 1 μg/ml leupeptin, 1 mM phenylmethanesulfonylfluoride, 1.5 mM benzamidine, and 2 μg/ml pepstatin). The total protein concentration of the cell lysate was determined by the Pierce BCA protein assay kit (Thermo scientific). The same amounts of proteins were loaded onto a polyacrylamide gel to run sodium dodecyl sulfate–polyacrylamide gel electrophoresis. Proteins were separated and transferred to a polyvinylidene difluoride membrane. The membrane was blocked with 5% bovine serum albumin for 1 h and incubated overnight at 4 °C with various antibodies (1:1000 dilution for all antibodies). After the unbound antibodies were removed by washing with 0.1% Tris buffer saline with 0.1% Tween20, the membranes were incubated with the horseradish peroxidase secondary antibody (1:5000 dilution) for 1 h at room temperature. The membranes were washed three more times with 0.1% Tris buffer saline with 0.1% Tween20 to remove the unbound horseradish peroxidase secondary antibody before imaging. The chemiluminescence intensity of protein bands in the gel was analyzed and documented by the Azure 500Q Imaging System.

Molecule	Smad2 phosphorylation after TGF-β stimulation	Smad2 phosphorylation after PI(4,5)P2 depletion (HeLa cells, PI(4,5)P2 depletion)
B1	fully restored after TGF-β stimulation	
B2	minimally phosphorylated	
B3	phosphorylated to a larger extent than WT	
B4	minimally phosphorylated	
B5		greatly suppressed Smad2 phosphorylation
B6	minimally phosphorylated	
B7	little phosphorylation after TGF-β stimulation	
